Tests used:
Experiment in all cases: ELISA: 500 ng peptide coated per well, 29E4 at 40 ng/mL, HRP goat anti-rabbit Ig 1:16,000, ABS 450 nm, duplicates [CONT. 2]
[1] = target: T1, P18 (alanine substituted, FIG. 3 panel E)
T1 construct: also called K228 to alanine
From the text: (§1) HRP Goat anti-rabbit Ig was applied at 1:16,000 dilution in all reactions.
(§2) Peptides were synthesized to achieve ≥70% HPLC purity by a commercial vendor (GenScript Biotech, Piscataway, NJ). Peptides were reconstituted in either water, or with addition of acetonitrile, methanol, 10% acetic acid, or DMSO, depending on the overall charge of each peptide. Key residues required for mAb binding were probed by ELISA using overlapping peptides, truncated peptides and alanine substituted peptides. Reactions were performed in duplicate using NUNC 96-well flatbottom MaxiSorp plates (Thermo Scientific). After coating each well with 500 ng of peptide in 100 μL coating buffer (50 mM NaHCO₃, pH 9.6), the plates were sealed and incubated at 4° C. overnight. […] Plates were then washed once with wash buffer, incubated with 100 μL mAb 29E4 (serially diluted from 1 mg/mL) for 1 hour at 37° C. Plates were further washed four times with wash buffer, and then incubated at 37° C. with 100 μL of a horse radish peroxidase (HRP)-conjugated secondary antibody against the primary antibody, diluted 1:16,000 according to manufacturer's protocols (KPL, Inc., Gaithersburg, MD). After washing four times with wash buffer, 100 μL of K-Blue Aqueous TMB substrate (Neogen, Lexington, KY) was added to the plates and incubated uncovered for 30 minutes at room temperature. To stop the reaction, 100 μL of 2 N Sulphuric acid was added to each well and absorbance were measured immediately at 450 nm. All dilutions of reagents were performed in ELISA diluent (20% NGS in 1×PBS with 0.1% Triton-X 100).

[2] = target: T2, P22 (alanine substituted, FIG. 3 panel E)
T2 construct: also called H232 to alanine
From the text: as §1, §2

[3] = target: T3, P21 (alanine substituted, FIG. 3 panel E)
T3 construct: also called Y231 to alanine
From the text: as §1, §2

[4] = target: T4, P14 (alanine substituted, FIG. 3 panel E)
T4 construct: also called P224 to alanine
From the text: as §1, §2

[5] = target: T5, P11 (alanine substituted, FIG. 3 panel E)
T5 construct: also called P221 to alanine
From the text: as §1, §2

[6] = target: T6, P24 (alanine substituted, FIG. 3 panel E)
T6 construct: also called P234 to alanine
From the text: as §1, §2

[7] = target: T7, P27 (alanine substituted, FIG. 3 panel E)
T7 construct: also called E237 to alanine
From the text: as §1, §2

[8] = target: T8, P16 (alanine substituted, FIG. 3 panel E)
T8 construct: also called G226 to alanine
From the text: as §1, §2

[9] = target: T9, P10 (alanine substituted, FIG. 3 panel E)
T9 construct: also called I220 to alanine
From the text: as §1, §2

[10] = target: T10, P5 (alanine substituted, FIG. 3 panel E)
T10 construct: not the overlapping peptide P5 of panel A; also called M215 to alanine
From the text: as §1, §2

[11] = target: T11, P8 (alanine substituted, FIG. 3 panel E)
T11 construct: also called P218 to alanine
From the text: as §1, §2

Measured: binding result

T1 sequence (peptide, as listed by the source): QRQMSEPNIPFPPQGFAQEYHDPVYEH
T8 sequence (peptide, as listed by the source): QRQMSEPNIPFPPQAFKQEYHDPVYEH
T6 sequence (peptide, as listed by the source): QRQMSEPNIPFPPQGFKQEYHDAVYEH
T7 sequence (peptide, as listed by the source): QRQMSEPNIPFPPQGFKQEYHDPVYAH
T5 sequence (peptide, as listed by the source): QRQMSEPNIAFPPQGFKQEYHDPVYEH
T10 sequence (peptide, as listed by the source): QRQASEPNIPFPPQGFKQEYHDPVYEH
T3 sequence (peptide, as listed by the source): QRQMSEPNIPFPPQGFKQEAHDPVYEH
T9 sequence (peptide, as listed by the source): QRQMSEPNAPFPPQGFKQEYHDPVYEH
T2 sequence (peptide, as listed by the source): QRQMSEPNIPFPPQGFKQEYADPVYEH
T4 sequence (peptide, as listed by the source): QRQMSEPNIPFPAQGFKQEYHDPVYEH
T11 sequence (peptide, as listed by the source): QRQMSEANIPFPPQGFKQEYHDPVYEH

B1: ETV1 rabbit monoclonal antibody (29E4) (antibody, V domains shown)
VH: QELEESGGDLVKPGASLTLTCTASGFFFSAENHICWVRQAPGKGLEWIGCVYIGSYVGGSGDPYYASWAKGRFTISKTSSTTVTLQMSSLTAADTATYFCARDLGSLWGPGTLVTVSS
VL: DVVMTQTASSVSAAVGGTVTIACQSSQSVYDNNNLAWFQQKPGQPPKRLIYSASTLASGVSSRFKGSGYGTQFTLTISDVQCDDAATYYCVGAFSGYIFVFGGGTEVVVK
notes: constant regions are not; also called 29E4 mAb; ETV1 29E4 mAb
binds: [1] | [2] | [3] | [4] | [5] | [6] | [7] | [8] | [9] | [10] | [11]
